Target: MCR-1 protein
Experiment: indirect ELISA, plate coated with MCR-1 protein at 0.2 ug/mL, purified antibody serially diluted
Settings: scale: dilution factor

Binder | titer
mouse anti-MCR-1 protein antibody 1BD9 (antibody, V domains shown) VH: VKLQQSGPELVKPGASVKVSCKASGYAFTSCNMYWVKQSHGKSLEWIGYFDPYSGDAYYNQKFKDKATLTVDKSSSTAYMHLNSLTSEDSAVYYCASWLQLYYALDYWGQGTSVTVSA VL: AIQMTQTPSSLSASLGDRVTISCRASQDISNYLNWYQQKPDGTVKLLIYYTSRLHSGVPSRFSGSGSGTDYSLNISNLEQEDFATYFCQQGDMIPDTFGGGTKLEIKR | > 1.28e+06
mouse anti-MCR-1 protein antibody 1BH8 (antibody, V domains shown) VH: VQLQQSGPELVKPGASVKMSCRASGYTFTNYIMHWVKQKPGQGLDWIGYINPYNDGTKYNEKFKGKATLSSDKSSGTAYMDLSSLTSEDSAVYYCARGPYGNYAMDYWGQGTSVTVSS VL: DVLMTQTPLSLPVSLGDQASISCRSSQNIVCSYGNPCLEWYLQKPGQSPKLLIYKVSNRFSGVPDRFSGSGSGTDFTLKISRVEAEDLGVYYCFQGSHVPWTFGGGTELEIKR | > 1.28e+06
